The source of these data is PMC8479633.

The target of experiment [1] is SMAD2 linker-MH2 construct, non-phosphorylated (S2LMH2). In words: SAXS with ensemble optimisation.
The target of experiment [2] is phosphomimetic full-length SMAD2 (S2FLEEE) (UniProt Q15796). In words: SAXS with ensemble optimisation.

Chain of phosphomimetic full-length SMAD2 (S2FLEEE) (from UniProt Q15796 1-467) (natural protein) (Q15796 whole entry): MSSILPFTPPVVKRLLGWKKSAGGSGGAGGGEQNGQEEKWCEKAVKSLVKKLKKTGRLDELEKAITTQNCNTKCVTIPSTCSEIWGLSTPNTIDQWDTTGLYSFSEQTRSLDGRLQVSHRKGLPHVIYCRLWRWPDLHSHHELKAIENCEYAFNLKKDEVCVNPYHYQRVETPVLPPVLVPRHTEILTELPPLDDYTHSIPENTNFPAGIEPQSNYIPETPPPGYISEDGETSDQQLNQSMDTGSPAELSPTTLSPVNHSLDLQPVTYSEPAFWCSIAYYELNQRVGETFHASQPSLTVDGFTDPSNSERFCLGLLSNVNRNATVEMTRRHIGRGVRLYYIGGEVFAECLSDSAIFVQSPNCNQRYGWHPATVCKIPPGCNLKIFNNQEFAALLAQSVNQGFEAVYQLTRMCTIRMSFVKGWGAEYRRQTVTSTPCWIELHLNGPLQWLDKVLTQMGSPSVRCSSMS
Chain of SMAD2 linker-MH2 construct, non-phosphorylated (S2LMH2) (domain or fragment) (Q15796 269-467): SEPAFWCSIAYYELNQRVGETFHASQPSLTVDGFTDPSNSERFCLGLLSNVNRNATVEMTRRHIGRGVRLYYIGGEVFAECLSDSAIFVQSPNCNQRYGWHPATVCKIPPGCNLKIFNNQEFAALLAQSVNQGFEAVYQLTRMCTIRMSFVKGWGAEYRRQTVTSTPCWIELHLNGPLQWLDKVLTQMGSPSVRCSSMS

The substance “SMAD2 linker-MH2 construct, non-phosphorylated (S2LMH2) (domain or fragment)” gave a percent of the population as dimer in experiment [1] of 25%. As to “phosphomimetic full-length SMAD2 (S2FLEEE) (from UniProt Q15796 1-467) (natural protein)”, in experiment [2], the percent of the population as dimer came to 36% and the percent of the population as trimer came to 44.8%.
